Test results reported in patent publication US20040248211A1, “ICAM-related protein” (priority 1992, published 2004).

Columns and labels:
[1] = tested on: J77.50.3 cells; experiment: IL-2 induction in J77.50.3 lines expressing ICAM-R variants; type: cell-based, human; details: for IL-2 Induction (Fold Stimulation): repeated experiments, Vector 0.52; for fold increase of IL-2 released (ICR-1.1 plus OKT3 divided by OKT3 alone): vector control 0.7 fold
Experimental: This dose of antibody alone provides minimal signalling for IL-2 release. The OKT3 treatment was removed and replaced with buffer alone or anti-ICAM-R (ICR-1.1) (10 ug/ml in PBS-D) and incubated at 37° C. for at least 2 hours. Monoclonal antibody coating was done in replicates of two or more wells and pooled to provide sufficient quantities of conditioned media for ELISA and/or bioassay. Two hundred fifty thousand Jurkat cells or transfectants thereof, were placed into antibody coated wells or buffer coated negative control wells in 0.1 ml of RPMI complete medium. Following incubation of about 16-24 hrs at 37° C. in a humidified atmosphere containing 5% CO2, the medium was transferred to a fresh 96 well round bottom plate, spun to pellet cells carried over and transferred to a fresh plate. Samples were frozen and stored at −70° C. IL-2 ELISAs were performed using commercially available kits (Biosource Intl. Co., Carmarille, Calif.) by making serial dilutions of the samples.
Experiments were performed using two independently isolated cell lines for each plasmid construct or the vector alone. Stable lines expressing similar levels of ICAM-R variants, as determined by indirect flow cytometry, were chosen for functional studies. Cells were costimulated with plate immobilized monoclonal antibodies ICR-1.1 and OKT3, and IL-2 release from the lines was quantitated by ELISA as previously described in Example 25C. Results were expressed as fold increase of IL-2 released from cells plated onto co-immobilized ICR-1.1 (10 μg/ml) plus OKt3 (1 μg/ml) divided by release from OKT3 ([…]) alone. The full length ICAM-R protein (haFL) gave 3.1 fold induction. The deletions gave the following fold inductions: haCTΔ505 induction was 1.5 fold, haCTΔ493 induction was 1.3 fold, haCTΔ484 was 0.8 fold. Vector control induction was 0.7 fold. […] In addition, removal of the residues 505-518 leads to the most significant reduction in co-stimulatory responsiveness. This implies that residues 505-518 play a relatively larger role in the response as compared to residues 484-505.

[2] = tested on: J77.50.3 cell lines; experiment: Cell spreading on ICR-1.1 coated plastic; type: cell-based, human; details: 20 minutes at 37° C.
Experimental: To ascertain additional functional consequences of ICAM-R carboxyl terminal deletions, the Jurkat cell lines expressing the. ICAM-R variants described above were tested for the ability to adhere and spread on antibody coated plastic or to undergo antibody-mediated aggregation. Bacterial petri plates were coated with 50 μl drops of ICR-1.1 or w6/32 (10 μg/ml) (anti-MHC class I isotype matched control monoclonal antibody) in PBS for 120 minutes at 37° C. The plastic was rinsed twice prior to spotting 50 μl drops of J77.50.3 cell lines. Duplicate cell lines expressing these proteins at equivalent levels were tested. After 20 minutes at 37° C. the plate was flooded with 2% glutaraldehyde in PBS and incubated for 30 minutes to fix adherent cells. Fixed cells were rinsed twice with PBS and scored visually for the ability to flatten and spread. […] Weyrich et al., J. Clin. Invest., 95: 2297-2303 (1995) recently described the effect of a ICR-1.1 coated plastic surface on normal monocytes from peripheral blood. After two hours, these cells flattened down and spread with a similar overall morphology to that seen with the haFL expressing J77.50.3 cell line.

[3] = tested on: J77.50.3 cell lines; experiment: ICR-1.1 induced aggregation of J77.50.3 lines; type: cell-based, human; details: for ICR-1.1 induced aggregation: ICR-1.1 10 μg/ml, 1 and 24 hours; for Percent Aggregation: repeated experiments, Vector 17
Experimental: One of these monoclonal antibodies (ICR-1.1) was used to induce aggregation of the J77.50.3 cell lines expressing either full length ICAM-R (haFL) or carboxy terminal variants of ICAM-R. ICR-1.1 was added to 200,000 cells at 10 μg/ml in 96 well plates and incubated 37° C. At 1 and 24 hours after incubation the wells were visually screened for aggregates.

[4] = target: T1, baculovirus-produced soluble human ICAM-R (Homo sapiens, UniProt P32942); experiment: ELISA binding of recombinant ICR-8.1 antibodies; details: humanized/chimeric ICR-8.1 chain combinations, human IgG4/kappa
T1 sequence (P32942 30-485 limits assumed): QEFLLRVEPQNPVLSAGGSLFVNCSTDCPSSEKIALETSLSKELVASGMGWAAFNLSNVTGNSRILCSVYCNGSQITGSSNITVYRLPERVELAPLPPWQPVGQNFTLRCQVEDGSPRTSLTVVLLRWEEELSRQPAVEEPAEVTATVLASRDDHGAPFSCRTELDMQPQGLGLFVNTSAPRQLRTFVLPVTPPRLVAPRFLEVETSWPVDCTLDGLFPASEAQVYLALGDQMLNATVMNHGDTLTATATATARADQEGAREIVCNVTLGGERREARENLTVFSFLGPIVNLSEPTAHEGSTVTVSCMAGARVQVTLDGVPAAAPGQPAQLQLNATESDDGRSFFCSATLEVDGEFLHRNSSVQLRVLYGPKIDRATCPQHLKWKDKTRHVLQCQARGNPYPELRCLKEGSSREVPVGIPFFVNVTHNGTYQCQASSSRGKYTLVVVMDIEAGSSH

Molecule | IL-2 Induction (Fold Stimulation) [1] | spreading on ICR-1.1 coated plastic [2] | ICR-1.1 induced aggregation [3] | fold increase of IL-2 released (ICR-1.1 plus OKT3 divided by OKT3 alone) [1] | Percent Aggregation [3] | binding to ICAM-R (ELISA), recombinant ICR-8.1 antibodies [4]
Tyr490Phe: ICAM-R cytoplasmic domain point mutant (protein, UniProt P32942 30-547, looked up, variant Y490F) Intercellular adhesion …: QEFLLRVEPQNPVLSAGGSLFVNCSTDCPSSEKIALETSLSKELVASGMGWAAFNLSNVTGNSRILCSVYCNGSQITGSSNITVYRLPERVELAPLPPWQPVGQNFTLRCQVEDGSPRTSLTVVLLRWEEELSRQPAVEEPAEVTATVLASRDDHGAPFSCRTELDMQPQGLGLFVNTSAPRQLRTFVLPVTPPRLVAPRFLEVETSWPVDCTLDGLFPASEAQVYLALGDQMLNATVMNHGDTLTATATATARADQEGAREIVCNVTLGGERREARENLTVFSFLGPIVNLSEPTAHEGSTVTVSCMAGARVQVTLDGVPAAAPGQPAQLQLNATESDDGRSFFCSATLEVDGEFLHRNSSVQLRVLYGPKIDRATCPQHLKWKDKTRHVLQCQARGNPYPELRCLKEGSSREVPVGIPFFVNVTHNGTYQCQASSSRGKYTLVVVMDIEAGSSHFVPVFVAVLLTLGVVTIVLALMYVFREHQRSGSFHVREESTYLPLTSMQPTEAMGEEPSRAE | 1.8 Fold | incapable of flattening down onto the ICR-1.1 coated surface | incapable of forming inducible aggregates |  |  | 
Leu499Ala: ICAM-R cytoplasmic domain point mutant (protein, UniProt P32942 30-547, looked up, variant L499A) Intercellular adhesion …: QEFLLRVEPQNPVLSAGGSLFVNCSTDCPSSEKIALETSLSKELVASGMGWAAFNLSNVTGNSRILCSVYCNGSQITGSSNITVYRLPERVELAPLPPWQPVGQNFTLRCQVEDGSPRTSLTVVLLRWEEELSRQPAVEEPAEVTATVLASRDDHGAPFSCRTELDMQPQGLGLFVNTSAPRQLRTFVLPVTPPRLVAPRFLEVETSWPVDCTLDGLFPASEAQVYLALGDQMLNATVMNHGDTLTATATATARADQEGAREIVCNVTLGGERREARENLTVFSFLGPIVNLSEPTAHEGSTVTVSCMAGARVQVTLDGVPAAAPGQPAQLQLNATESDDGRSFFCSATLEVDGEFLHRNSSVQLRVLYGPKIDRATCPQHLKWKDKTRHVLQCQARGNPYPELRCLKEGSSREVPVGIPFFVNVTHNGTYQCQASSSRGKYTLVVVMDIEAGSSHFVPVFVAVLLTLGVVTIVLALMYVFREHQRSGSYHVREESTYAPLTSMQPTEAMGEEPSRAE | ˜6 Fold | Neither ICAM-R mutation affected | Neither ICAM-R mutation affected | Neither ICAM-R mutation affected IL-2 secretion | 60% | 
Ser496Ala: ICAM-R cytoplasmic domain point mutant (protein, UniProt P32942 30-547, looked up, variant S496A) Intercellular adhesion …: QEFLLRVEPQNPVLSAGGSLFVNCSTDCPSSEKIALETSLSKELVASGMGWAAFNLSNVTGNSRILCSVYCNGSQITGSSNITVYRLPERVELAPLPPWQPVGQNFTLRCQVEDGSPRTSLTVVLLRWEEELSRQPAVEEPAEVTATVLASRDDHGAPFSCRTELDMQPQGLGLFVNTSAPRQLRTFVLPVTPPRLVAPRFLEVETSWPVDCTLDGLFPASEAQVYLALGDQMLNATVMNHGDTLTATATATARADQEGAREIVCNVTLGGERREARENLTVFSFLGPIVNLSEPTAHEGSTVTVSCMAGARVQVTLDGVPAAAPGQPAQLQLNATESDDGRSFFCSATLEVDGEFLHRNSSVQLRVLYGPKIDRATCPQHLKWKDKTRHVLQCQARGNPYPELRCLKEGSSREVPVGIPFFVNVTHNGTYQCQASSSRGKYTLVVVMDIEAGSSHFVPVFVAVLLTLGVVTIVLALMYVFREHQRSGSYHVREEATYLPLTSMQPTEAMGEEPSRAE | ˜6 Fold | Neither ICAM-R mutation affected | Neither ICAM-R mutation affected | Neither ICAM-R mutation affected IL-2 secretion | 60% | 
MuVHVS/MuVK: chimeric ICR-8.1: murine VH with Val2, Ser7 and murine VK, human IgG4/kappa constant regions (antibody, V domains shown) VH: EVQLQQSGPELVKPGASVKISCKASGYSFTDCIILWVKQSHGKGLEWIGKINPYFGTTTYNLKFKGKATLTVDKSSSTAHMQLNSLTSEDSAVYYCARKEAYPDAMDYWGQGTSVTVSS VL: DAVMTQTPLSLPVSLGDQASISCRSSQSLVHSNGDTYLHWYLQKPGQSPQLLIYKVSNRFSGVPDRFSGSGSGTDFTLKLSRVEAEDLGVYFCSQSTHVPYTFGGGTKLEIK |  |  |  |  |  | equivalence in binding to ICAM-R
HuVH/MuVK: ICR-8.1 humanized VH (Ala71) with murine VK (antibody, V domains shown) VH: QVQLVQSGAEVKKPGASVKVSCKASGYTFTDCIILWVRQAPGQGLEWMGKINPYFGTTTYNLKFKGRVTITADTSTSTAYMELSSLRSEDTAVYYCARKEAYPDAMDYWGQGTLVTVSS VL: DAVMTQTPLSLPVSLGDQASISCRSSQSLVHSNGDTYLHWYLQKPGQSPQLLIYKVSNRFSGVPDRFSGSGSGTDFTLKLSRVEAEDLGVYFCSQSTHVPYTFGGGTKLEIK |  |  |  |  |  | equivalence in binding to ICAM-R
HuVHV/MuVK: ICR-8.1 humanized VH with Thr28 and Val71, murine VK (antibody, V domains shown) VH: QVQLVQSGAEVKKPGASVKVSCKASGYTFTDCIILWVRQAPGQGLEWMGKINPYFGTTTYNLKFKGRVTITVDTSTSTAYMELSSLRSEDTAVYYCARKEAYPDAMDYWGQGTLVTVSS VL: DAVMTQTPLSLPVSLGDQASISCRSSQSLVHSNGDTYLHWYLQKPGQSPQLLIYKVSNRFSGVPDRFSGSGSGTDFTLKLSRVEAEDLGVYFCSQSTHVPYTFGGGTKLEIK |  |  |  |  |  | equivalence in binding to ICAM-R
miJuVH/MuVK: ICR-8.1 miHuVH (Ala60, Gln61, Gln64) heavy chain with murine VK (antibody, V domains shown) VH: QVQLVQSGAEVKKPGASVKVSCKASGYTFTDCIILWVRQAPGQGLEWMGKINPYFGTTTYAQKFQGRVTITADTSTSTAYMELSSLRSEDTAVYYCARKEAYPDAMDYWGQGTLVTVSS VL: DAVMTQTPLSLPVSLGDQASISCRSSQSLVHSNGDTYLHWYLQKPGQSPQLLIYKVSNRFSGVPDRFSGSGSGTDFTLKLSRVEAEDLGVYFCSQSTHVPYTFGGGTKLEIK |  |  |  |  |  | equivalence in binding to ICAM-R
MuVHVST/MuVK: chimeric ICR-8.1, MuVHVS heavy chain with Thr28, murine VK (antibody, V domains shown) VH: EVQLQQSGPELVKPGASVKISCKASGYTFTDCIILWVKQSHGKGLEWIGKINPYFGTTTYNLKFKGKATLTVDKSSSTAHMQLNSLTSEDSAVYYCARKEAYPDAMDYWGQGTSVTVSS VL: DAVMTQTPLSLPVSLGDQASISCRSSQSLVHSNGDTYLHWYLQKPGQSPQLLIYKVSNRFSGVPDRFSGSGSGTDFTLKLSRVEAEDLGVYFCSQSTHVPYTFGGGTKLEIK |  |  |  |  |  | equivalence in binding to ICAM-R
